Experimental findings from patent US9144596 are described below.

The subject of data set [1] is wild-type APC peptide (1250-KVSSINQETIQTYCVEDTPI-1269).
Data set [2] relates to mutant (I-A,Y-A) APC peptide (1250-KVSSINQETAQTACVEDTPI-1269).

As to “His-tagged pol-βwt protein (human pol-β, carboxyl-terminal hexahistidine tag, pET23d)”, the “dRP-lyase activity of pol-βwt (3'-end labeled U-DNA substrate)” value in data set [1] was “a very efficient dRP-lyase activity of pol-βwt ..., which was blocked by APCwt peptide in a dose-dependent manner”; in data set [2], “APC(I-A,Y-A) did not show any effect on the dRP-lyase activity of pol-βwt”.
